According to article PMC6385242, “Identification and characterization of a factor Va-binding site on human prothrombin fragment 2” (Scientific Reports, 2019):

Target: T1, Wild-type prothrombin (human, UniProt P00734 44-622)
T1 construct: prothrombin, human
Test: SPR; Biacore T200; FVa amine-coupled on a CM5 chip (8000-9000 RU); prothrombin 0-10,000 nM injected for 60 s at 30 uL/min; HBS (0.02 M HEPES, 0.15 M NaCl, pH 7.4) with 5 mM CaCl2 and 0.01% Tween-80; kinetic 1:1 Langmuir model
Settings: both partners purified

B1: Factor Va (complex)
heavy: AQLRQFYVAAQGISWSYRPEPTNSSLNLSVTSFKKIVYREYEPYFKKEKPQSTISGLLGPTLYAEVGDIIKVHFKNKADKPLSIHPQGIRYSKLSEGASYLDHTFPAEKMDDAVAPGREYTYEWSISEDSGPTHDDPPCLTHIYYSHENLIEDFNSGLIGPLLICKKGTLTEGGTQKTFDKQIVLLFAVFDESKSWSQSSSLMYTVNGYVNGTMPDITVCAHDHISWHLLGMSSGPELFSIHFNGQVLEQNHHKVSAITLVSATSTTANMTVGPEGKWIISSLTPKHLQAGMQAYIDIKNCPKKTRNLKKITREQRRHMKRWEYFIAAEEVIWDYAPVIPANMDKKYRSQHLDNFSNQIGKHYKKVMYTQYEDESFTKHTVNPNMKEDGILGPIIRAQVRDTLKIVFKNMASRPYSIYPHGVTFSPYEDEVNSSFTSGRNNTMIRAVQPGETYTYKWNILEFDEPTENDAQCLTRPYYSDVDIMRDIASGLIGLLLICKSRSLDRRGIQRAADIEQQAVFAVFDENKSWYLEDNINKFCENPDEVKRDDPKFYESNIMSTINGYVPESITTLGFCFDDTVQWHFCSVGTQNEILTIHFTGHSFIYGKRHEDTLTLFPMRGESVTVTMDNVGTWMLTSMNSSPRSKKLRLKFRDVKCIPDDDEDSYEIFEPPESTVMATRKMHDRLEPEDEESDADYDYQNRLAAALGIR
light: SNNGNRRNYYIAAEEISWDYSEFVQRETDIEDSDDIPEDTTYKKVVFRKYLDSTFTKRDPRGEYEEHLGILGPIIRAEVDDVIQVRFKNLASRPYSLHAHGLSYEKSSEGKTYEDDSPEWFKEDNAVQPNSSYTYVWHATERSGPESPGSACRAWAYYSAVNPEKDIHSGLIGPLLICQKGILHKDSNMPMDMREFVLLFMTFDEKKSWYYEKKSRSSWRLTSSEMKKSHEFHAINGMIYSLPGLKMYEQEWVRLHLLNIGGSQDIHVVHFHGQTLLENGNKQHQLGVWPLLPGSFKTLEMKASKPGWWLLNTEVGENQRAGMQTPFLIMDRDCRMPMGLSTGIISDSQIKASEFLGYWEPRLARLNNGGSYNAWSVEKLAAEFASKPWIQVDMQKEVIITGIQTQGAKHYLKSCYTTEFYVAYSSNQINWQIFKGNSTRNVMYFNGNSDASTIKENQFDPPIVARYIRISPTRAYNRPTLRLELQGCEVNGCSTPLGMENGKIENKQITASSFKKSWWGDYWEPFRARLNAQGRVNAWQAKANNNKQWLEIDLLKIKKITAIITQGCKSLSSEMYVKSYTIHYSEQGVEWKPYRLKSSMVDKIFEGNTNTKGHVKNFFNPPIISRFIRVIPKTWNQSIALRLELFGCDIY
notes: heavy chain of factor Va; light chain of factor Va; Bovine FVa is named only for the preparation of the heavy chain for NMR; the source of the FVa of the other experiments is in the Supplementary Materials; also called FVa
Question: Which Kd does the source give for B1 here?
Answer: The Kd was 1 µM.
